Data reported in patent publication US20250312499A1, “KISSPEPTIN RECEPTOR (KISS1R) TARGETED THERAPEUTICS AND USES THEREOF” (priority 2024, published 2025).
Values belong to the binder of their own block, whether it stands above or below them. Numbered stars: 1 amine (or outer) side, 2 acyl side, 3 side chain; on linkers, the order of the positions; unused ones are H or OH. Square brackets hold non-standard residues; d marks the D form. Primed or numbered codes have the meaning given here. Side chains are listed from the residue outwards. Ends that are not written are not given here. * marks the point of attachment. X2 = 4‑amino‑1‑((3-fluoro-4-methylbenzyl)glycyl)piperidine‑4‑carboxylic acid, Cc1ccc(CN(CC(=O)N2CCC(N[*:1])(C(=O)[*:2])CC2)[*:3])cc1F; DOTA = O=C(O)CN1CCN(CC(=O)O)CCN(CC(=O)*)CCN(CC(=O)O)CC1; Piperidine‑2‑carboxylic_acid(MeGly) = not defined here; Ala(9-anthryl) = N[C@@H](Cc1c2ccccc2cc2ccccc12)C(=O)O; Bpa = N[C@@H](Cc1ccc(C(=O)c2ccccc2)cc1)C(=O)O; Api(1-amidino) = N=C(N)N1CCC(N)(C(=O)O)CC1; Bip = N[C@@H](Cc1ccc(-c2ccccc2)cc1)C(=O)O; γGlu = O=C(O)[C@H](CCC(=O)[*:2])N[*:1]; d2Nal = N[C@H](Cc1ccc2ccccc2c1)C(=O)O; εLys = N[C@@H](CCCCN[*:1])C(=O)[*:2]; Adipoyl = O=C(CCCCC(=O)[*:2])[*:1]; Palmitoyl = CCCCCCCCCCCCCCCC(=O)*; 4Pal = N[C@@H](Cc1ccncc1)C(=O)O; 4Amb = NCc1ccc(C(=O)O)cc1; PEG4′ = not defined here; dCsA = not defined here; Ahx = NCCCCCC(=O)O; azaGly = NNC(=O)O

Legend:
[1] = molecular target: human kisspeptin receptor (KISS1R) (human), Q969F8; test: radioligand competition, hKISS1R membranes; legend: A is <10 nM
Sequence of human kisspeptin receptor (KISS1R) (human), Q969F8 (Q969F8 whole entry): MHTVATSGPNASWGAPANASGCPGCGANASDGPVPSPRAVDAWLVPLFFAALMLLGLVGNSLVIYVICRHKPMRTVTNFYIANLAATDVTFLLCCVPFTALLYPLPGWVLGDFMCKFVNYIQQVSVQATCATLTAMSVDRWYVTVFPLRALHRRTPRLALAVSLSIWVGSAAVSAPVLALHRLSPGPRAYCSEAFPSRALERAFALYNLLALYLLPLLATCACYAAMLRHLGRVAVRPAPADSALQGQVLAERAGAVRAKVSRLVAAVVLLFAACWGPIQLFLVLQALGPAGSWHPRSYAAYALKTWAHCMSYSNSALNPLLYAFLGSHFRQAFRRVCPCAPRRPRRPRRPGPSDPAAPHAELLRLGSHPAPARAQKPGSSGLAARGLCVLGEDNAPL

[2] = molecular target: human kisspeptin receptor (KISS1R) (human) (UniProt Q969F8); test: as above
Sequence of human kisspeptin receptor (KISS1R) (human) (Q969F8 whole entry): as above

B1: Compound 109 (peptide)
peptide: {DOTA-4Amb}-F[azaGly]L[X2]W-NH2
SMILES: Cc1ccc(CNCC(=O)N2CCC(NC(=O)[C@H](CC(C)C)NC(=O)NNC(=O)[C@H](Cc3ccccc3)NC(=O)c3ccc(CNC(=O)CN4CCN(CC(=O)O)CCN(CC(=O)O)CCN(CC(=O)O)CC4)cc3)(C(=O)N[C@@H](Cc3c[nH]c4ccccc34)C(N)=O)CC2)cc1F
- Ki [1]: < 10 nM

B2: Compound 107 (peptide)
peptide: {DOTA-Ahx}-[dY][dH][dW]NTF[azaGly]L[X2][4Pal]-NH2
SMILES: Cc1ccc(CNCC(=O)N2CCC(NC(=O)[C@H](CC(C)C)NC(=O)NNC(=O)[C@H](Cc3ccccc3)NC(=O)[C@@H](NC(=O)[C@H](CC(N)=O)NC(=O)[C@@H](Cc3c[nH]c4ccccc34)NC(=O)[C@@H](Cc3c[nH]cn3)NC(=O)[C@@H](Cc3ccc(O)cc3)NC(=O)CCCCCNC(=O)CN3CCN(CC(=O)O)CCN(CC(=O)O)CCN(CC(=O)O)CC3)[C@@H](C)O)(C(=O)N[C@@H](Cc3ccncc3)C(N)=O)CC2)cc1F
- Ki [1]: < 10 nM

Binder: Palmitoyl-[γGlu]K([PEG4′-DOTA])[dY][dW]NTF[azaGly]L[X2]W-NH2 [Compound 119]
- Ki [1]: < 10 nM

B5: Compound 108 (peptide)
peptide: {DOTA-Ahx}-[dY][azaGly]NTF[azaGly]L[X2]W-NH2
SMILES: Cc1ccc(CNCC(=O)N2CCC(NC(=O)[C@H](CC(C)C)NC(=O)NNC(=O)[C@H](Cc3ccccc3)NC(=O)[C@@H](NC(=O)[C@H](CC(N)=O)NC(=O)NNC(=O)[C@@H](Cc3ccc(O)cc3)NC(=O)CCCCCNC(=O)CN3CCN(CC(=O)O)CCN(CC(=O)O)CCN(CC(=O)O)CC3)[C@@H](C)O)(C(=O)N[C@@H](Cc3c[nH]c4ccccc34)C(N)=O)CC2)cc1F
- Ki [1]: < 10 nM

Binder: {DOTA-dCsA-Ahx}-[dY][dW]NTF[azaGly]L[X2]W-NH2 (not fully specified; reading uncertain) [Compound 115]
- Ki [1]: < 10 nM

B6: Compound 117 (peptide)
peptide: [dY][dW]NTF[azaGly]L[X2]W-NH2
modifications: not fully specified (N-terminus); also: N-terminal Lys linked through its epsilon amine to adipoyl, which acylates D-Tyr1
- Ki [1]: < 10 nM

B9: Compound 113 (peptide)
peptide: {DOTA-Ahx}-[dY][dW]NAF[azaGly]L[X2]L-NH2
SMILES: Cc1ccc(CNCC(=O)N2CCC(NC(=O)[C@H](CC(C)C)NC(=O)NNC(=O)[C@H](Cc3ccccc3)NC(=O)[C@H](C)NC(=O)[C@H](CC(N)=O)NC(=O)[C@@H](Cc3c[nH]c4ccccc34)NC(=O)[C@@H](Cc3ccc(O)cc3)NC(=O)CCCCCNC(=O)CN3CCN(CC(=O)O)CCN(CC(=O)O)CCN(CC(=O)O)CC3)(C(=O)N[C@@H](CC(C)C)C(N)=O)CC2)cc1F
- Ki [1]: < 10 nM

B10: Compound 106 (peptide)
peptide: {DOTA-Ahx}-[dY]N[dW]NTF[azaGly]L[X2][4Pal]-NH2
SMILES: Cc1ccc(CNCC(=O)N2CCC(NC(=O)[C@H](CC(C)C)NC(=O)NNC(=O)[C@H](Cc3ccccc3)NC(=O)[C@@H](NC(=O)[C@H](CC(N)=O)NC(=O)[C@@H](Cc3c[nH]c4ccccc34)NC(=O)[C@H](CC(N)=O)NC(=O)[C@@H](Cc3ccc(O)cc3)NC(=O)CCCCCNC(=O)CN3CCN(CC(=O)O)CCN(CC(=O)O)CCN(CC(=O)O)CC3)[C@@H](C)O)(C(=O)N[C@@H](Cc3ccncc3)C(N)=O)CC2)cc1F
- Ki [1]: < 10 nM

Results, then the binder that gave them:

- Ki [1]: < 10 nM
Binder: {DOTA-4Amb-Met-Val-εLys-Adipoyl}-F[azaGly]L[X2]W-NH2 [Compound 132]

- Ki [1]: < 10 nM
Binder: {DOTA-Ahx}-[dY][dW]NTF[azaGly]L[4‑amino‑1‑((4-methoxybenzyl)glycyl)piperidine‑4‑carboxylic acid]F-NH2 [Compound 140]

- Ki [2]: < 10 nM
Binder: {DOTA}-[dY][3‑(9-anthryl)alanine]NTF[azaGly]L[Api(1-amidino)][4Pal]-NH2 [Compound 221]

- Ki [2]: < 10 nM
B3: Compound 184 (peptide)
peptide: {DOTA}-[Ahx][dY][Ala(9-anthryl)]NTF[azaGly]L[Api(1-amidino)]W-NH2
SMILES: CC(C)C[C@H](NC(=O)NNC(=O)[C@H](Cc1ccccc1)NC(=O)[C@@H](NC(=O)[C@H](CC(N)=O)NC(=O)[C@H](Cc1c2ccccc2cc2ccccc12)NC(=O)[C@@H](Cc1ccc(O)cc1)NC(=O)CCCCCNC(=O)CN1CCN(CC(=O)O)CCN(CC(=O)O)CCN(CC(=O)O)CC1)[C@@H](C)O)C(=O)NC1(C(=O)N[C@@H](Cc2c[nH]c3ccccc23)C(N)=O)CCN(C(=N)N)CC1

- Ki [2]: < 10 nM
B4: Compound 183 (peptide)
peptide: {DOTA}-[Ahx][dY][Bpa]NTF[azaGly]L[Api(1-amidino)]W-NH2
SMILES: CC(C)C[C@H](NC(=O)NNC(=O)[C@H](Cc1ccccc1)NC(=O)[C@@H](NC(=O)[C@H](CC(N)=O)NC(=O)[C@H](Cc1ccc(C(=O)c2ccccc2)cc1)NC(=O)[C@@H](Cc1ccc(O)cc1)NC(=O)CCCCCNC(=O)CN1CCN(CC(=O)O)CCN(CC(=O)O)CCN(CC(=O)O)CC1)[C@@H](C)O)C(=O)NC1(C(=O)N[C@@H](Cc2c[nH]c3ccccc23)C(N)=O)CCN(C(=N)N)CC1

- Ki [2]: < 10 nM
Binder: {DOTA}-[Ahx][dY][d2Nal]NTF[azaGly]L[Piperidine‑2‑carboxylic_acid(MeGly)]W-NH2 (not fully specified; reading uncertain) [Compound 201]

- Ki [1]: < 10 nM
Binder: {DOTA-Met-Val-εLys-Adipoyl}-[dY][dW]NTF[azaGly]L[X2]W-NH2 [Compound 133]

- Ki [2]: < 10 nM
B7: Compound 185 (peptide)
peptide: {DOTA}-[Ahx][dY][d2Nal]NTF[azaGly]L[Api(1-amidino)]Y-NH2
SMILES: CC(C)C[C@H](NC(=O)NNC(=O)[C@H](Cc1ccccc1)NC(=O)[C@@H](NC(=O)[C@H](CC(N)=O)NC(=O)[C@@H](Cc1ccc2ccccc2c1)NC(=O)[C@@H](Cc1ccc(O)cc1)NC(=O)CCCCCNC(=O)CN1CCN(CC(=O)O)CCN(CC(=O)O)CCN(CC(=O)O)CC1)[C@@H](C)O)C(=O)NC1(C(=O)N[C@@H](Cc2ccc(O)cc2)C(N)=O)CCN(C(=N)N)CC1

- Ki [2]: < 10 nM
B8: Compound 198 (peptide)
peptide: {DOTA}-[Ahx][dY][Bip]NTF[azaGly]L[Api(1-amidino)]W-NH2
SMILES: CC(C)C[C@H](NC(=O)NNC(=O)[C@H](Cc1ccccc1)NC(=O)[C@@H](NC(=O)[C@H](CC(N)=O)NC(=O)[C@H](Cc1ccc(-c2ccccc2)cc1)NC(=O)[C@@H](Cc1ccc(O)cc1)NC(=O)CCCCCNC(=O)CN1CCN(CC(=O)O)CCN(CC(=O)O)CCN(CC(=O)O)CC1)[C@@H](C)O)C(=O)NC1(C(=O)N[C@@H](Cc2c[nH]c3ccccc23)C(N)=O)CCN(C(=N)N)CC1
